Reference: patent publication US20230002480A1

Columns and labels:
Experiment in all cases: cell-based or functional assay
[1] = target: HIV-1 Env of pseudovirus 0260.v5.c36 (HIV-1)
[2] = target: HIV-1 Env of pseudovirus 1012_11_TC21_3257 (HIV-1)
[3] = target: HIV-1 Env of pseudovirus 1056_10_TA11_1826 (HIV-1)
[4] = target: HIV-1 Env of pseudovirus 231966.c02 (HIV-1)
[5] = target: HIV-1 Env of pseudovirus 6540.v4.c1 (HIV-1)
[6] = target: HIV-1 Env of pseudovirus 6811.v7.c18 (HIV-1)
[7] = target: HIV-1 Env of pseudovirus 928-28 (HIV-1)
[8] = target: HIV-1 Env of pseudovirus BJOX015000.11.5 (HIV-1)
[9] = target: HIV-1 Env of pseudovirus BJOX028000.10.3 (HIV-1)
[10] = target: HIV-1 Env of pseudovirus CAAN5342.A2 (HIV-1)
[11] = target: HIV-1 Env of pseudovirus CAP210.2.00.E8 (HIV-1)
[12] = target: HIV-1 Env of pseudovirus CNE20 (HIV-1)
[13] = target: HIV-1 Env of pseudovirus CNE5 (HIV-1)
[14] = target: HIV-1 Env of pseudovirus CNE53 (HIV-1)
[15] = target: HIV-1 Env of pseudovirus CNE8 (HIV-1)
[16] = target: HIV-1 Env of pseudovirus Ce0393_C3 (HIV-1)
[17] = target: HIV-1 Env of pseudovirus Ce0682_E4 (HIV-1)
[18] = target: HIV-1 Env of pseudovirus Ce1176_A3 (HIV-1)
[19] = target: HIV-1 Env of pseudovirus Ce2010_F5 (HIV-1)
[20] = target: HIV-1 Env of pseudovirus Ce703010054_2A2 (HIV-1)
[21] = target: HIV-1 Env of pseudovirus Du156.12 (HIV-1)
[22] = target: HIV-1 Env of pseudovirus Du422.1 (HIV-1)
[23] = target: HIV-1 Env of pseudovirus HIV-001428-2.42 (HIV-1)
[24] = target: HIV-1 Env of pseudovirus MS208.A1 (HIV-1)
[25] = target: HIV-1 Env of pseudovirus P1981_C5_3 (HIV-1)
[26] = target: HIV-1 Env of pseudovirus Q461.e2 (HIV-1)
[27] = target: HIV-1 Env of pseudovirus Q842.d12 (HIV-1)
[28] = target: HIV-1 Env of pseudovirus R2184.c04 (HIV-1)
[29] = target: HIV-1 Env of pseudovirus T251-18 (HIV-1)
[30] = target: HIV-1 Env of pseudovirus T278-50 (HIV-1)
[31] = target: HIV-1 Env of pseudovirus X1193_c1 (HIV-1)
[32] = target: HIV-1 Env of pseudovirus X1254_c3 (HIV-1)
[33] = target: HIV-1 Env of pseudovirus ZM109F.PB4 (HIV-1)
[34] = target: HIV-1 Env of pseudovirus ZM214M.PL15 (HIV-1)
[35] = target: HIV-1 Env of pseudovirus ZM233M.PB6 (HIV-1)
[36] = target: HIV-1 Env of pseudovirus ZM249M.PL1 (HIV-1)
[37] = target: HIV-1 Env of pseudovirus ZM53M.PB12 (HIV-1)

## PGDM1400 (antibody)
[1]
  IC50: 0.033 µg/mL
  IC80: 0.175 µg/mL
[2]
  IC50: 0.049 µg/mL
  IC80: 0.23 µg/mL
[3]
  IC50: 3.26 µg/mL
  IC80: 11.8 µg/mL
[4]
  IC50, titer in TZM.bl cells: 0.001 µg/mL
  IC80, titer in TZM.bl cells: 0.004 µg/mL
[5]
  IC50, titer in TZM.bl cells: 0.004 µg/mL
  IC80, titer in TZM.bl cells: 0.028 µg/mL
[6]
  IC50, titer in TZM.bl cells: > 50 µg/mL
  IC80, titer in TZM.bl cells: > 50 µg/mL
[7]
  IC50: 0.22 µg/mL
  IC80: 1.25 µg/mL
[8]
  IC50, titer in TZM.bl cells: 0.52 µg/mL
  IC80, titer in TZM.bl cells: 10.6 µg/mL
[9]
  IC50, titer in TZM.bl cells: 0.072 µg/mL
  IC80, titer in TZM.bl cells: 0.963 µg/mL
[10]
  IC50: > 50 µg/mL
  IC80: > 50 µg/mL
[11]
  IC50: 0.034 µg/mL
  IC80: 0.514 µg/mL
[12]
  IC50: 0.004 µg/mL
  IC80: 0.014 µg/mL
[13]
  IC50, titer in TZM.bl cells: < 0.001 µg/mL
  IC80, titer in TZM.bl cells: < 0.001 µg/mL
[14]
  IC50: 0.077 µg/mL
  IC80: 0.246 µg/mL
[15]
  IC50, titer in TZM.bl cells: < 0.001 µg/mL
  IC80, titer in TZM.bl cells: 0.01 µg/mL
[16]
  IC50: 0.015 µg/mL
  IC80: 0.044 µg/mL
[17]
  IC50: 0.01 µg/mL
  IC80: 0.043 µg/mL
[18]
  IC50: 0.587 µg/mL
  IC80: 11.6 µg/mL
[19]
  IC50: > 50 µg/mL
  IC80: > 50 µg/mL
[20]
  IC50: 0.015 µg/mL
  IC80: 0.26 µg/mL
[21]
  IC50: 0.002 µg/mL
  IC80: 0.008 µg/mL
[22]
  IC50: 0.694 µg/mL
  IC80: > 50 µg/mL
[23]
  IC50: < 0.001 µg/mL
  IC80: 0.027 µg/mL
[24]
  IC50: < 0.001 µg/mL
  IC80: 0.139 µg/mL
[25]
  IC50, titer in TZM.bl cells: 0.104 µg/mL
  IC80, titer in TZM.bl cells: 4.6 µg/mL
[26]
  IC50: 0.089 µg/mL
  IC80: 0.572 µg/mL
[27]
  IC50: < 0.001 µg/mL
  IC80: 0.002 µg/mL
[28]
  IC50, titer in TZM.bl cells: 0.003 µg/mL
  IC80, titer in TZM.bl cells: 0.012 µg/mL
[29]
  IC50, titer in TZM.bl cells: 8.62 µg/mL
  IC80, titer in TZM.bl cells: 43.1 µg/mL
[30]
  IC50, titer in TZM.bl cells: 0.574 µg/mL
  IC80, titer in TZM.bl cells: 4.94 µg/mL
[31]
  IC50, titer in TZM.bl cells: 0.219 µg/mL
  IC80, titer in TZM.bl cells: 0.781 µg/mL
[32]
  IC50, titer in TZM.bl cells: > 50 µg/mL
  IC80, titer in TZM.bl cells: > 50 µg/mL
[33]
  IC50: 0.057 µg/mL
  IC80: 0.382 µg/mL
[34]
  IC50: > 50 µg/mL
  IC80: > 50 µg/mL
[35]
  IC50: < 0.001 µg/mL
  IC80: 0.001 µg/mL
[36]
  IC50: 0.016 µg/mL
  IC80: 0.701 µg/mL
[37]
  IC50: 0.002 µg/mL
  IC80: 0.011 µg/mL

## PGT121 (antibody)
[1]
  IC50: 0.053 µg/mL
  IC80: 0.197 µg/mL
[2]
  IC50: 0.003 µg/mL
  IC80: 0.017 µg/mL
[3]
  IC50: 0.004 µg/mL
  IC80: 0.081 µg/mL
[4]
  IC50: > 50 µg/mL
  IC80: > 50 µg/mL
[5]
  IC50: > 50 µg/mL
  IC80: > 50 µg/mL
[6]
  IC50: < 0.001 µg/mL
  IC80: 0.001 µg/mL
[7]
  IC50: 44.2 µg/mL
  IC80: > 50 µg/mL
[8]
  IC50: > 50 µg/mL
  IC80: > 50 µg/mL
[9]
  IC50: > 50 µg/mL
  IC80: > 50 µg/mL
[10]
  IC50: 0.007 µg/mL
  IC80: 0.023 µg/mL
[11]
  IC50: 26.3 µg/mL
  IC80: > 50 µg/mL
[12]
  IC50: < 0.001 µg/mL
  IC80: 0.002 µg/mL
[13]
  IC50: > 50 µg/mL
  IC80: > 50 µg/mL
[14]
  IC50: 0.007 µg/mL
  IC80: 0.024 µg/mL
[15]
  IC50: > 50 µg/mL
  IC80: > 50 µg/mL
[16]
  IC50: > 50 µg/mL
  IC80: > 50 µg/mL
[17]
  IC50: > 50 µg/mL
  IC80: > 50 µg/mL
[18]
  IC50: 0.013 µg/mL
  IC80: 0.035 µg/mL
[19]
  IC50: > 50 µg/mL
  IC80: > 50 µg/mL
[20]
  IC50: > 50 µg/mL
  IC80: > 50 µg/mL
[21]
  IC50: 0.004 µg/mL
  IC80: 0.017 µg/mL
[22]
  IC50: 0.039 µg/mL
  IC80: 0.143 µg/mL
[23]
  IC50: 0.014 µg/mL
  IC80: 0.051 µg/mL
[24]
  IC50: > 50 µg/mL
  IC80: > 50 µg/mL
[25]
  IC50: < 0.001 µg/mL
  IC80: < 0.001 µg/mL
[26]
  IC50: > 50 µg/mL
  IC80: > 50 µg/mL
[27]
  IC50: 0.005 µg/mL
[28]
  IC50: > 50 µg/mL
  IC80: > 50 µg/mL
[29]
  IC50: 29 µg/mL
  IC80: > 50 µg/mL
[30]
  IC50: > 50 µg/mL
  IC80: > 50 µg/mL
[31]
  IC80: 0.086 µg/mL
[32]
  IC50: 0.014 µg/mL
  IC80: 0.08 µg/mL
[33]
  IC50: 8.64 µg/mL
  IC80: > 50 µg/mL
[34]
  IC50: 0.46 µg/mL
  IC80: 2.04 µg/mL
[35]
  IC50: 3.69 µg/mL
[36]
  IC50: > 50 µg/mL
  IC80: > 50 µg/mL
[37]
  IC50: < 0.001 µg/mL
  IC80: 0.004 µg/mL
